Patent US20030091584A1 (AstraZeneca / MedImmune, published 2003)
Where a chain is given by its changes, count along the chain named. “And” between values parts separate entries of the source, which are not always exact repeats. Identical values can stand only once.

T1: RSV F glycoprotein (NUF4) (respiratory syncytial virus)
T1 chain 1: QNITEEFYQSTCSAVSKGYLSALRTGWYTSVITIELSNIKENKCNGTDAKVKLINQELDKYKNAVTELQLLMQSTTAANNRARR
T1 chain 2: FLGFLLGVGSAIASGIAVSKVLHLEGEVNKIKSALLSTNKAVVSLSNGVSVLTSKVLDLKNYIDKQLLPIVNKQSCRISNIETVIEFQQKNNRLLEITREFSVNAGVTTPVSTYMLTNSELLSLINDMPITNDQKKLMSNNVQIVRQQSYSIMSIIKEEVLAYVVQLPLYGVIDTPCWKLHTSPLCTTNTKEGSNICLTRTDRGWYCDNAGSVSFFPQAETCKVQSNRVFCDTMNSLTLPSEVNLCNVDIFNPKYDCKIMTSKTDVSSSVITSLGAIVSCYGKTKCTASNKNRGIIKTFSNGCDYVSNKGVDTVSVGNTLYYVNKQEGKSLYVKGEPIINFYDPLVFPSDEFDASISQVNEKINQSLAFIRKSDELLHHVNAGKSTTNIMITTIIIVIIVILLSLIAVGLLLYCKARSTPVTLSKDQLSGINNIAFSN

B1: A17d4 (monoclonal antibody) (antibody, V domains shown)
VH: QVTLRESGPALVKPTQTLTLTCTFSGFSLSTAGMSVGWIRQPPGKALEWLADIWWDGKKSYNPSLKDRLTISKDTSKNQVVLKVTNMDPADTATYYCARDMIFNFYFDVWGQGTTVTVSS
VL: DIQMTQSPSTLSASVGDRVTITCLPSSRVGYMHWYQQKPGKAPKLLIYDTMYQASGVPSRFSGSGSGTEFTLTISSLQPDDFATYYCFQFSGYPFTFGGGTKLEIK
notes: mAb with framework and constant regions of SYNAGIS
B2: A13c4 (Fab fragment) (Fab, V domains shown)
VH: B1 VH
VL: B1 VL with L24S, P25L, A54S, F90G, L103V
notes: Fab
B3: A13c4 (monoclonal antibody) (antibody, V domains shown)
VH: B1 VH
VL: B1 VL with L24S, P25L, A54S, F90G, L103V
notes: as for B1

Columns and labels:
[1] = target: T1, RSV F glycoprotein (NUF4); test: ITC, NUF4 titrated into antibody, 35 °C (1/Kb)
[2] = target: T1, RSV F glycoprotein (NUF4); test: ITC, NUF4 titrated into antibody
[3] = target: T1, RSV F glycoprotein (NUF4); test: ITC, NUF4 titrated into antibody, 35 °C
[4] = target: T2, F protein of wild type RSV A/Long (respiratory syncytial virus strain …, UniProt P12568 26-574); test: cell-based or functional assay
[5] = target: T1, RSV F glycoprotein (NUF4); test: BIAcore, mAb vs NUF4 (1:1)
[6] = target: T1, RSV F glycoprotein (NUF4); test: BIAcore, mAb vs NUF4 (2:1)
[7] = target: RSV F protein (immobilized on the BIAcore sensor chip) (respiratory syncytial virus); test: BIAcore, immobilized F protein;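 also: fab fragments as analytes binding F protein coupled to the chip via EDC/NHS chemistry, with blank surface signal subtracted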
[8] = target: T2, F protein of wild type RSV A/Long; test: cell-based or functional assay; remark: listed apart in the source

Binder | Kd [1] [nM] | ΔHb (binding enthalpy) [2] [kcal/mol] | Ka [3] [M⁻¹] | Fold Difference (Control IC50) [4] [fold] | Fold Difference (Curve IC50) [4] [fold] | Mean IC50 (Control), RSV microneutralization [4] [µg/mL] | Mean IC50 (Curve), RSV microneutralization [4] [µg/mL] | Kd [5] [nM] | koff [5] [s⁻¹] | kon [5] [M⁻¹ s⁻¹] | number in parentheses after KD (fold against SYNAGIS = 1) [5] [fold] | Kd [6] [nM] | koff [6] [s⁻¹] | kon [6] [M⁻¹ s⁻¹] | number in parentheses after KD (fold against SYNAGIS = 1) [6] [fold] | koff [7] [s⁻¹] | kon [7] | EC50 (nM), in vitro microneutralization of RSV Long [8] [nM]
B1 | 13 | 16.3 | 7.5e+07 | 15 | 13 | 0.0354 | 0.0342 | 0.73 | 0.000362 | 499000 | 12 | 1.11 | 0.000292 | 264000 | 281 |  |  | 
B2 |  |  |  | 21 | 17 | 0.0258 | 0.0264 |  |  |  |  |  |  |  |  | 0.00028 | 781000 M⁻¹ s⁻¹ and 735000 M⁻¹ s⁻¹ | 0.52
B3 | 9 | 16 | 1.07e+08 | 14 | 12 | 0.0375 | 0.0376 | 0.75 | 0.000272 | 365000 | 12 | 0.7 | 0.000225 | 320000 | 446 |  |  | 
